# From article PMC5001606
# T1: HiNmlR wild-type (Haemophilus influenzae Rd KW20, UniProt P44558 1-135)
# T1 sequence: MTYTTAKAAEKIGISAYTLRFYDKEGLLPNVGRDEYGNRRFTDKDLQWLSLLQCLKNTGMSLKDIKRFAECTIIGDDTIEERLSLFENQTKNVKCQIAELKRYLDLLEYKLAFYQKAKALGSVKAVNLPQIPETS
# T2: HiNmlR C54A (Haemophilus influenzae Rd KW20, UniProt P44558 1-135, C54A)
# T2 sequence: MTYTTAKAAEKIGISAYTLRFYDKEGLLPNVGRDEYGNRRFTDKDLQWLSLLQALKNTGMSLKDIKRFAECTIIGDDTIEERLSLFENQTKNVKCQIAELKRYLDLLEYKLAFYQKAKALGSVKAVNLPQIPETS
# T3: HiNmlR C54A/C95A (Haemophilus influenzae Rd KW20, UniProt P44558 1-135, C54A;C95A)
# T3 sequence: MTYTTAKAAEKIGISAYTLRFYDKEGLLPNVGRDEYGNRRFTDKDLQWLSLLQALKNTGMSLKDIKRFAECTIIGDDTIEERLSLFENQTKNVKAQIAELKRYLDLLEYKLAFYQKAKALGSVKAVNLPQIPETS
# T4: HiNmlR C71A/C95A (Haemophilus influenzae Rd KW20, UniProt P44558 1-135, C71A;C95A)
# T4 sequence: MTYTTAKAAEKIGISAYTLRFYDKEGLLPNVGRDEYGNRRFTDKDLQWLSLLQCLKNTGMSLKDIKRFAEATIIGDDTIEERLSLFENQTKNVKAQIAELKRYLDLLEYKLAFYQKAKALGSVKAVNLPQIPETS
# T5: HiNmlR C54A/C71A/C95A (Haemophilus influenzae Rd KW20, UniProt P44558 1-135, C54A;C71A;C95A)
# T5 sequence: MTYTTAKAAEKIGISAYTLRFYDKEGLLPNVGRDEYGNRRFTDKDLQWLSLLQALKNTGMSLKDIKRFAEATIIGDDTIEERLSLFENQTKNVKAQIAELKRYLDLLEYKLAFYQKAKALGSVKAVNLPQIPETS
# B1: G5'C/C5G 24-bp (dsDNA)
# DNA 1: CACTTTACAGTTCACTGTAAAGCA
# DNA 2: TGCTTTACAGTGAACTGTAAAGTG
# B2: C5G 24-bp (dsDNA)
# DNA 1: CACTTTAGAGTTCACTGTAAAGCA
# DNA 2: TGCTTTACAGTGAACTCTAAAGTG
# B3: PadhC-estD/nmlR IR wt 24-bp (dsDNA)
# DNA 1: CACTTTAGAGTTCACTCTAAAGCA
# DNA 2: TGCTTTAGAGTGAACTCTAAAGTG
# B4: G5'C 24-bp (dsDNA)
# DNA 1: CACTTTACAGTTCACTCTAAAGCA
# DNA 2: TGCTTTAGAGTGAACTGTAAAGTG
# Experiments:
# Test in all cases: MST
# [1] = molecular target: T1, HiNmlR wild-type
# [2] = molecular target: T2, HiNmlR C54A
# [3] = molecular target: T3, HiNmlR C54A/C95A
# [4] = molecular target: T4, HiNmlR C71A/C95A
# [5] = molecular target: T5, HiNmlR C54A/C71A/C95A
Binder,Kd [1],Kd [2],Kd [3],Kd [4],Kd [5]
B1,4690 ± 311 nM,–,–,–,–
B2,252 ± 17.4 nM,–,–,–,–
B3,25.2 ± 2.3 nM,91.1 ± 15.6 nM,47.4 ± 6.7 nM,33 ± 3.4 nM,55.3 ± 5.3 nM
B4,245 ± 26.1 nM,–,–,–,–
